Test results taken from US6261569.

Molecular target: riMod, retro-inverso model peptide
Experiment: ELISA, immobilised riMod-BSA

non-immune mouse serum (polyclonal serum or antibody)
titre (reciprocal of highest serum dilution): 80
